Assay [1] has as its target T1, α-amylase (pig pancreatic enzyme α-amylase, Sigma) (pig, UniProt P00690 16-511).
T1 sequence: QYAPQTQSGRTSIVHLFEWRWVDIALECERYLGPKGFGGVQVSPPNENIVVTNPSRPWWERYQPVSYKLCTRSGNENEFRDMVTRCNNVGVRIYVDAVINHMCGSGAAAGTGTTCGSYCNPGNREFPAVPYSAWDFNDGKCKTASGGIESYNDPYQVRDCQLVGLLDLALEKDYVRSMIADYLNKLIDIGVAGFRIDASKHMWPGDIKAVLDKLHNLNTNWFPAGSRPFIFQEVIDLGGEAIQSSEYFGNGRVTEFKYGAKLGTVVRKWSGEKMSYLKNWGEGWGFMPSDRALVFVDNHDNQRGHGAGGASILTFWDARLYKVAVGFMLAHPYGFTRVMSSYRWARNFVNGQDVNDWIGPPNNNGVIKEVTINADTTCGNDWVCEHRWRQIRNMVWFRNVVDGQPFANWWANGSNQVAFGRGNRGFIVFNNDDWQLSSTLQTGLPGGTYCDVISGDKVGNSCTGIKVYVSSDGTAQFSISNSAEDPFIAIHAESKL
As to the kind of experiment: ELISA, supernatant of EPEC culture on coated antigen, anti-E-tag-POD. (In general: ELISA stands for enzyme-linked immunosorbent assay.)

For assay [2], the target named is T2, bovine seroalbumin (BSA, Roche) (bovine, UniProt P02769 25-607).
T2 construct: also called bovine albumin
Described as above.

T2 sequence (P02769 25-607 limits assumed): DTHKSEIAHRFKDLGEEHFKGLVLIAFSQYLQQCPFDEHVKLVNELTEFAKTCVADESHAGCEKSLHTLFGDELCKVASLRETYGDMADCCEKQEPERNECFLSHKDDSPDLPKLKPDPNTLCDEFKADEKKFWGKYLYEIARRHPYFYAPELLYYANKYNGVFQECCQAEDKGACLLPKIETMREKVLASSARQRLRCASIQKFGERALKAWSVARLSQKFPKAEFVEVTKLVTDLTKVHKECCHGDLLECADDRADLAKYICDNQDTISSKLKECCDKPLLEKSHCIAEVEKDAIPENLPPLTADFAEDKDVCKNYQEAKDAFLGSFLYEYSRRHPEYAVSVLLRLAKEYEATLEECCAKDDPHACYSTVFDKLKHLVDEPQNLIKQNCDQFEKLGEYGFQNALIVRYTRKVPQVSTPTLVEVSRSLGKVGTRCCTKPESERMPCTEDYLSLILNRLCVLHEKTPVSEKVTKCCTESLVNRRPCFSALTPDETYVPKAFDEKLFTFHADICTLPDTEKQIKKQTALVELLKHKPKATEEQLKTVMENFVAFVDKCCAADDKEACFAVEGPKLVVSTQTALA

B1: fusion antibody EspF-Vamy (EspF20 signal fused to camel VHH anti-amylase with C-terminal 6xhis and E-tag) (VHH)
VHH: QVQLVESWGGSVQAGGSLRLSCTAPGFTSNSCRMDWYRQAAGKQREWVSSISTDGRTSYADSVKGRFTISKDKAKDTVYLQMNSLKPEDTAIYYCAVRTNGYRPQSHEFRYWGPGTQVTVSS
notes: also called EspF20-Vamy; product of plasmid pEspFVamy
Regarding B1, the binding result is given as “binds” in assay [1] and “no binding” in assay [2].

B2: fusion antibody EspF-Vgfp (EspF20 signal fused to camel VHH anti-GFP with C-terminal 6xhis and E-tag) (VHH)
VHH: QVQLVESGGALVQPGGSLRLSCAASGFPVNRYSMRWYRQAPGKEREWVAGMSSAGDRSSYEDSVKGRFTISRDDARNTVYLQMNSLKPEDTAVYYCNVNVGFEYWGQGTQVTVSS
notes: also called product of plasmid pEspFVgfp
Turning to B2, the binding result in assay [1] and in assay [2] was “no binding” in each case.
